# Results taken from the RNAGym collection of RNA variant scans (doi:10.1073/pnas.2313332121).
# B1: TPR t1 (parent)
# chain: GACCAAUCUGCCCUCAGAGCUCGAGAACAUCUUCGGAUGCAGAGGAGGCAGGCUUCGGUGGCGCGAUAGCGCCAACGUCCUCAACCUCCAAUGCAUCCCACCACAUGAUGAUGCCUGAAGAGCCUUGGUUUUUUG
# Variants of: B1
# Experiment: polymerase ribozyme fitness, log enrichment relative to wild type (log ratio); higher = more active; in vitro selection for triplet polymerase activity
# In short: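 After PCR construction and transcription, each subunit's mutant library from a heterodimeric triplet polymerase ribozyme was annealed with a biotinylated primer, the partner subunit and triplets. Incubation was frozen, at −7 °C, and extended constructs were gel-excised, bound to streptavidin beads and amplified by RT-PCR, in one selection round done in triplicate. Fitness is the logarithm of a genotype's enrichment divided by that of the wild type, from inverse-variance-weighted replicate averages of Illumina-sequenced inputs and outputs. The base of the logarithm is 2, and genotypes needed ≥10 input reads and ≥1 read per output.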
row,Variant,polymerase ribozyme fitness (log ratio)
1,GACCAAUCUGCCCUCAGAGCUCGAGAAAAUCUUCGGAUGCAGAGGAGGCAGGCUUCGGUGGCCCGAUAGCGCCAACGUCCUCAACCUCCAAUGCAUCCCACCACAUGAUGAUGCCUGAAGAGCCUUGGUUUUUUG [C28A G63C],-4.91
2,GACCAAUCUGCCCUCAGAGCUCGAGAAAAUCUUCGGAUGCAGAGGAGGCAGGCUUCGGUGGCGCGAUAGCGCCAACGUCCUCAACCUUCAAUGCAUCCCAUCACAUGAUGAUGCCUGAAGAGCCUUGGUUUUUUG [C28A C88U C101U],-5.29
3,GACCAAUCUGCCCUCAGAGCUCGAGAAGAUCUUCGGUUGCAGAGGAGGCAGGCUUCGGUGGCGCGAUAGCGCCAACGUCCUCAACCUCCAAUGCAUCCCACCACAUGAUGAUGCCUGAAGAGCCUUGGUUUUUUG [C28G A37U],-2.45
4,GACCAAUCUGCCCUCAGAGCUCGAGAAGAUCUUCGGCUGCAGAGGAGGCAGGCUUCGGUGGCGCGAUAGCGCCAACGUCCUCAACCUCCAAUGCAUCCCACCACAUGAUGAUGCCUGAAGAGCCUUGGUUUUUUG [C28G A37C],-3.7
5,GACCAAUCUGCCCUCAGAGCUCGAGAAAAUCUUCGGAGGCAGAGGAGGCAGGCUUCGGUAGCGCGAUAGCGCCAACGUCCUCAACCUCCAAUGCAUCCCACCACAUGAUGAUGCCUGAAGAGCCUUGGUUUUUUG [C28A U38G G60A],-5.64
6,GACCAAUCUGCCCUCAGAGCUCGAGAAAAUCUUCGGAUGCAGAGGAGGCAGGCUUCGGUGGCGCGAUAGCGCUAACGUCCUCAACCUCCAAUGCAUCCCACCACAUGAUGAUGCCUGAAGAGCCUUGGUUUUUUG [C28A C73U],-3.04
7,GACCAAUCUGCCCUCAGAGCUCGAGAAGAUCUUCGGAUGUAGAGGAGGCAGGUUUGGGUGGCGCGAUAGCGCCAACGUCCUCAACCUCCACUGCAUCCCACCACAUGAUGAUGCUUGAAGAGCCUUGGAUUUUUG [C28G C40U C53U C56G A91C C115U U129A],-5.15
8,GACCAAUCUGCCCUCAGAGCUCGAGAAAAUCCUCGGAUGCAGAGGAGGCAGGCUUCGGUGGCGCGAUAGCGCCAACGUCCUCAACCUCCAAUGCAUCCCACCACAUGAUGAUGCCUGAAGAGCCUUGGUUUUUUG [C28A U32C],-3.9
9,GACCAAUCUGCCCUCAGAGCUCGAGAAAAUCUUCGGAUGCAGAGGAGGCAGGCUUCGGUGGCGCGAUAGCGCCAACGUCCUCAACCUCCAAUGCAUCCCACCACAUGAUCAUGCUUGAAGAGCCUUGGUUUUAUG [C28A G110C C115U U133A],-5.27
10,GACCAAUCUGCCCUCAGAGCUCGAGAAGAUCUUCGGGUGCAGAGGAGACAGGCUUCGGUGGCGCGAUAGCGCCAACGUCCUCAACCUCCAAUGCAUCCCACCAUAUGAUGAUGCCUGAAGAGACUUGGUUUUUUG [C28G A37G G48A C104U C123A],-2.85
11,GACCAAUCUGCCCUCAGAGCUCGAGAAGAUCUUCGGAUGGAGAGGAGUCAGGUUUCGGUGGCGCGAUAGCGCCAACGUCCUCAACCUCCAAUGCAUCCCACCACAUGAUGAUGCCUGAAGAGCCUUGGUUUUUUG [C28G C40G G48U C53U],-3.75
12,GACCAAUCUGCCCUCAGAGCUCGAGAAAAUCUUCGGAUUCAGAGGAGGCAGGCCUCGGUGGCGCGAUAGCGCCAACGUCCUCAACCUCCAAUGCAUCCCACCACAUGAUGAUGCCUGAAGAGCCUUGGUUUUUUG [C28A G39U U54C],-4.55
13,GACCAAUCUGCCCUCAGAGCUCGAGAAAAUCUUCGGAUGCAGAGGAGGCAGGCUUCGGUGUCGCGAUAGCGCCAACGUCCUCAACCUCCAAUGCAUCCCACCACAUGAUGAUGCCUGAAGAGCCUUGGUUUUUUG [C28A G61U],-3.73
14,GACCAAUCUGCCCUCAGAGCUCGAGAAAAUCUUCGGAUGCAGAGGAGGCAGGCUUCGGUUGCGCGAUAGCGCCUACGUCCUCCACCUCCAAUGCAUCCCACCACAUGAUGAUUCCUGAAGAGCCUUGGUUUUUUG [C28A G60U A74U A83C G113U],-6.48
15,GACCAAUCUGCCCUCAGAGCUCGAGAAAAUCUUCGGAUGCAGAGGAGGCAGGCUUCGGUGGCGCGAUAGCGCCAACGUCCUCAACCUCCAAUGCAUCCCACCACAUGAUGAUGCCUGAAGAGCACUUGUUUUUUG [C28A C124A U125C G127U],-3.12
16,GACCAAUCUGCCCUCAGAGCUCGAGAAGUUCUUCGGAUGCAGAGGAGGCAGGCUUCGGUGGCGCGAUAGCGCCAACGUCCUCAACCUCCAAUGCAUCCCACCACAUGAUGAUGGCUGAAGAGCCUUCGUUUUUUG [C28G A29U C114G G127C],-5.87
17,GACCAAUCUGCCCUCAGAGCUCGAGAAAAUCUUCGGAUGCAGAAGAGACAGGCUUCGGUGGCGCGAUAGCGCUAACGUCCUCAACCUCCAAUGCAUCCCACCACAAGAUGAUGCCUGAAGAGCCUUGGUUUUUUG [C28A G44A G48A C73U U106A],-5.87
18,GACCAAUCUGCCCUCAGAGCUCGAGAAAAUCUUCGGAUGCAGAGGAGGCAGGCUUCGGUGGCGCGAUAGCGCCAACGUCUUCAACCUCCAAUGCAUCCCACCACAUGAUGGUGCCUGAAGAGCCUUGGUUUUUUG [C28A C80U A111G],-5.64
19,GACCAAUCUGCCCUCAGAGCUCGAGAAAAUCUUCGGAUGCAGAGGAGGCAGGCUUCGGUGGCGCGAUAGCGCAAACGUCCUCAACCUCCAAUGCAUCCCACCACAUGAUGAUGCCUGAAGAGCGUUGGUUUUUUG [C28A C73A C124G],-3.22
20,GACCAAUCUGCCCUCAGAGCUCGAGAAAAUCUUCGGAUGCAGAGGAGGCAGGCUUCGGUAGCGCGAUAGCGCCAACGUCCUCAACCUCCAAUGCAUUCCACCACAUGAUGAAGCCUGAAGAGCCUUGGUUUUUUG [C28A G60A C97U U112A],-2.26
21,GACCAAUCUGCCCUCAGAGCUCGAGAAAAUCUUCGGAUGCAGAGGAGGCAGGCUUCGGUGGCGCGAUAGCGCCAACGUCCUCAAUCUCCAAUGCAUCCCACCACAUGAUGAUGCCUGAAGUGCCUUGGUUUUUUG [C28A C85U A121U],-3.69
